Experimental data: the Immune Epitope Database (IEDB)

Experiments:
[1] = target: HLA-A*03:01; experiment: IEDB peptide-MHC binding, purified MHC/competitive/fluorescence; filed as Kd, often an IC50 or EC50 that approximates it; ≥ and ≤ were set here for values at or beyond the usual limits of such assays
[2] = target: HLA-A*24:03; experiment: as above
[3] = target: HLA-B*27:03; experiment: as above
[4] = target: HLA-A*02:11; experiment: as above
[5] = target: HLA-A*26:01; experiment: as above
[6] = target: HLA-A*29:02; experiment: as above
[7] = target: HLA-B*18:01; experiment: as above
[8] = target: HLA-A*02:12; experiment: as above
[9] = target: HLA-B*39:01; experiment: as above
[10] = target: HLA-B*46:01; experiment: as above
[11] = target: HLA-A*02:19; experiment: as above
[12] = target: HLA-B*15:01; experiment: as above
[13] = target: HLA-B*57:01; experiment: as above
[14] = target: HLA-A*02:01; experiment: as above
[15] = target: HLA-A*02:16; experiment: as above
[16] = target: HLA-A*02:03; experiment: as above
[17] = target: HLA-B*15:17; experiment: as above; conditions: source organism: Entamoeba histolytica HM-1:IMSS
[18] = target: HLA-A*68:02; experiment: as above; conditions: source organism: Entamoeba histolytica HM-1:IMSS
[19] = target: HLA-A*69:01; experiment: as above; conditions: source organism: Entamoeba histolytica HM-1:IMSS
[20] = target: HLA-B*51:01; experiment: as above
[21] = target: HLA-A*23:01; experiment: as above; conditions: source organism: Entamoeba histolytica HM-1:IMSS
[22] = target: HLA-B*83:01; experiment: as above; conditions: source organism: Giardia lamblia ATCC 50803
[23] = target: HLA-A*68:23; experiment: as above; conditions: source organism: Giardia lamblia ATCC 50803
[24] = target: HLA-B*15:42; experiment: as above; conditions: source organism: Giardia lamblia ATCC 50803
[25] = target: HLA-C*04:01; experiment: as above; conditions: source organism: Giardia lamblia ATCC 50803
[26] = target: HLA-B*45:06; experiment: as above; conditions: source organism: Giardia lamblia ATCC 50803
[27] = target: HLA-C*08:02; experiment: IEDB peptide-MHC binding, purified MHC/direct/fluorescence; filed as Kd, often an IC50 or EC50 that approximates it; ≥ and ≤ were set here for values at or beyond the usual limits of such assays; conditions: source organism: Giardia lamblia ATCC 50803
[28] = target: HLA-A*01:01; experiment: as above; conditions: source organism: Giardia lamblia ATCC 50803
[29] = target: HLA-B*58:01; experiment: IEDB peptide-MHC binding, purified MHC/competitive/fluorescence; filed as Kd, often an IC50 or EC50 that approximates it; ≥ and ≤ were set here for values at or beyond the usual limits of such assays; conditions: source organism: Vibrio antiquarius
[30] = target: HLA-C*06:02; experiment: IEDB peptide-MHC binding, purified MHC/direct/fluorescence; filed as Kd, often an IC50 or EC50 that approximates it; ≥ and ≤ were set here for values at or beyond the usual limits of such assays; conditions: source organism: Vibrio antiquarius
[31] = target: HLA-C*05:01; experiment: as above; conditions: source organism: Vibrio antiquarius
[32] = source organism: Mycobacterium tuberculosis variant bovis BCG str. Pasteur 1173P2
[33] = source organism: Entamoeba histolytica HM-1:IMSS
[34] = source organism: Vibrio antiquarius

## DEGFHAATV
[1]; [32]
  Kd: ≥ 20 µM
[2]; [32]
  Kd: ≥ 20 µM
[3]; [32]
  Kd: ≥ 20 µM
[4]; [32]
  Kd: ≥ 20 µM
[5]; [32]
  Kd: ≥ 20 µM
[6]; [32]
  Kd: ≥ 20 µM
[7]; [32]
  Kd: 0.0788 µM
[8]; [32]
  Kd: ≥ 20 µM
[9]; [32]
  Kd: ≥ 20 µM
[10]; [32]
  Kd: ≥ 20 µM
[11]; [32]
  Kd: ≥ 20 µM
[12]; [32]
  Kd: ≥ 20 µM
[13]; [32]
  Kd: ≥ 20 µM
[14]; [32]
  Kd: ≥ 20 µM
[15]; [32]
  Kd: ≥ 20 µM
[16]; [32]
  Kd: ≥ 20 µM

## KVSVGSYFC
[1]; [33]
  Kd: ≥ 20 µM
[2]; [33]
  Kd: ≥ 20 µM
[17]
  Kd: ≥ 20 µM
[3]; [33]
  Kd: ≥ 20 µM
[4]; [33]
  Kd: ≥ 20 µM
[18]
  Kd: ≥ 20 µM
[5]; [33]
  Kd: ≥ 20 µM
[6]; [33]
  Kd: ≥ 20 µM
[7]; [33]
  Kd: ≥ 20 µM
[19]
  Kd: ≥ 20 µM
[8]; [33]
  Kd: ≥ 20 µM
[9]; [33]
  Kd: ≥ 20 µM
[10]; [33]
  Kd: ≥ 20 µM
[11]; [33]
  Kd: ≥ 20 µM
[12]; [33]
  Kd: ≥ 20 µM
[13]; [33]
  Kd: ≥ 20 µM
[14]; [33]
  Kd: ≥ 20 µM
[15]; [33]
  Kd: 9 µM
[20]; [33]
  Kd: ≥ 20 µM
[21]
  Kd: ≥ 20 µM
[16]; [33]
  Kd: ≥ 20 µM

## MTDVDLNYY
[22]
  Kd: ≥ 5 µM
[23]
  Kd: 0.002 µM
[24]
  Kd: ≥ 5 µM
[25]
  Kd: ≥ 5 µM
[26]
  Kd: ≥ 5 µM
[27]
  Kd: ≥ 20 µM
[28]
  Kd: ≤ 0.001 µM

## FAMTVPLLI
[29]
  Kd: 0.0014 µM
[9]; [34]
  Kd: 0.009 µM
[12]; [34]
  Kd: ≥ 20 µM
[14]; [34]
  Kd: 0.0027 µM
[20]; [34]
  Kd: 0.126 µM
[30]
  Kd: 0.026 µM
[31]
  Kd: ≤ 0.001 µM
